Experimental findings from patent publication US20200000897A1 (published 2020) are described below.

Some results are limits rather than exact numbers.

The target in this assay is T1, HLA-A*03:01 (human).
T1 construct: MHC class I monomer first loaded with a UV-sensitive peptide that is cleaved by UV irradiation and exchanged for the test peptide; captured on streptavidin plates; also called peptide-receptive MHC molecules
In words: UV-ligand exchange, anti-b2m ELISA; peptide exchange yield grade (>10% +, >20% ++, >50% +++, >75% ++++). Put shortly:
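HLA-A*03:01 complexes were formed by UV-induced exchange of a photocleavable peptide for the test peptide. Exchange yield was measured by ELISA: streptavidin capture of 100-fold diluted monomers, HRP-anti-β2m detection, TMB read at 450 nm, quantified against HLA-A*02:01 monomer standards (15–500 ng/ml) and graded by % yield.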
For orientation: An ELISA detects its analyte on a solid surface through an enzyme-linked reagent.
The molecule RVRALGSQY returned a peptide exchange yield of more than 75%.
The molecule HLFLPFSYK had a peptide exchange yield of more than 75%.
FLGLAFHPK gave a peptide exchange yield of 20 to 50%.
For IINESLLFY, the peptide exchange yield lay in the range of 50 to 75%.
AVAAVLLSR: the peptide exchange yield is 50 to 75%.
Consider VVDDSQLPK, for which the peptide exchange yield was 20 to 50%.
For KLYPQCLQK, the peptide exchange yield was more than 75%.
Turning to RLASVGLDAK, the peptide exchange yield was more than 75%.
As for IMKRQVKCITK, the peptide exchange yield lay within 10 to 20%.
RCFSGPYLNK showed a peptide exchange yield of more than 75%.
With RTALLWGLKK the figure was more than 75%; with CLANYTVNK, more than 75%; with KTGTFVLYKS, 50 to 75%.
With PLPRPGAVLK the figure was 20 to 50%.
With VVREILHAQTLK the figure was 50 to 75%.
The molecule HMDEFKRTQK displayed a peptide exchange yield of 50 to 75%.
KRIPFRPLAK showed a peptide exchange yield of 20 to 50%.
Turning to RLLQHTPSAR, the peptide exchange yield was more than 75%.
With VSVAGSILAK the figure was 20 to 50%.
Consider IIFVPEMNK, for which the peptide exchange yield is more than 75%.
SVEGLSRRLK: the peptide exchange yield was in the range of 50 to 75%.
KARDLRTPK gave a peptide exchange yield of 50 to 75%.
RTYTCQVTY registered a peptide exchange yield of more than 75%.
In turn, IMPTFDLTK showed a peptide exchange yield of 10 to 20%.
Molecule VLYELGIIGNNK showed a peptide exchange yield of 50 to 75%.
For RAVSVNPGK, the peptide exchange yield was in the range of 10 to 20%.
In turn, VIYVICRHK came in with a peptide exchange yield of 50 to 75%.
As to GLSTILLYH, the peptide exchange yield is more than 75%.
The molecule KGPMAGILAY yielded a peptide exchange yield of 20 to 50%.
With QLYSPPSPSYR the figure was more than 75%; with RVKEIVINK, 50 to 75%; with SVLSRMLVR, more than 75%.
In turn, KLADSVMAGK had a peptide exchange yield of more than 75%.
Take ALCGTQLFY: the peptide exchange yield is more than 75%.
Take RTIEELQNK: the peptide exchange yield fell in the range of 50 to 75%.
With GMTLLCEALK the figure was 20 to 50%; with GTHVWVGLYK, more than 75%.
The result for RVSGSGGGGAGK reads 50 to 75%.
On to HVLYPVPLESY, for which the peptide exchange yield lay in the range of 50 to 75%.
For the molecule TTNARILAR, the peptide exchange yield is 50 to 75%.
As to VTAVASLLK, the peptide exchange yield was more than 75%.
